The values below come from US20130052176, “APTAMER FOR NGF AND USE THEREOF” (SHIONOGI & CO., LTD, published 2013).

What all share (conditions): tags: amine-coupled to CM5 chip in SPR; soluble in cell assays; chain copies: 2
The target of series [1] is T1, NGF (nerve growth factor) (human, UniProt P01138 P01138:122-241). Briefly: cell_activity; neurite outgrowth, NGF 1.1 nM; SPR binding; TF-1 IC50 4.3 nM.
Series [2] has as its target T1, NGF (nerve growth factor). In words: cell_activity; neurite outgrowth, NGF 0.38 nM; SPR binding; TF-1 IC50 0.100 nM. The protocol:
(§1) The neurite outgrowth inhibitory activity of the aptamer obtained in Example 1 was evaluated by using Neuroscreen-1 cell, which is a subclone of PC-12 cells.
(§2) The cells (2500 cells per well) were cultured for one day in an RPMI-1640 medium containing 2.5% horse serum and 1.25% fetal bovine serum in a 96 well flat-bottom plate coated with collagen type IV. […] Two days later, the cytoplasm and nuclei were stained using Cellomics Neurite Outgrowth Kit (manufactured by Thermo Scientific), and neurite length per cell was measured by Cellomics ArrayScan VTI (manufactured by Thermo Scientific). With the neurite length per cell obtained by the addition of NGF alone as inhibitory activity 0%, and that of the cell obtained by NGF free culture for 2 days as inhibitory activity 100%, the inhibitory activity of the aptamer was calculated from the neurite length per cell obtained by culturing with the addition of NGF and the aptamer in mixture. When the inhibitory activity was 0% or below, ‘0%’ is indicated.
For orientation: Surface plasmon resonance follows binding to a sensor surface in real time, without labels.

The target of series [3] is T1, NGF (nerve growth factor). Briefly: cell_activity; neurite outgrowth, NGF 0.38 nM; SPR binding; TF-1 IC50 <0.1 nM. Here is the method: as §1, §2
Series [4] deals with T1, NGF (nerve growth factor). In words: cell_activity; neurite outgrowth, NGF 0.38 nM; SPR binding; TF-1 IC50 0.074 nM. The protocol:
as §1, §2

Series [5] addresses T1, NGF (nerve growth factor). Briefly: cell_activity; neurite outgrowth, NGF 0.38 nM; SPR binding; TF-1 IC50 0.073 nM. The protocol:
as §1, §2

In series [6] the target is T1, NGF (nerve growth factor). Briefly: cell_activity; neurite outgrowth, NGF 0.38 nM; SPR binding; TF-1 IC50 0.058 nM.
For series [7], the target named is T1, NGF (nerve growth factor). Briefly: cell_activity; neurite outgrowth, NGF 1.1 nM; SPR binding; TF-1 IC50 >10 nM. The protocol:
as §1, §2

Series [8] addresses T1, NGF (nerve growth factor). In words: cell_activity; neurite outgrowth, NGF 0.38 nM; SPR binding; TF-1 IC50 0.081 nM.
In series [9] the target is T1, NGF (nerve growth factor). Briefly: cell_activity; neurite outgrowth, NGF 0.38 nM; SPR binding; TF-1 IC50 0.061 nM. Here is the method: as §1, §2
Series [10] has as its target T1, NGF (nerve growth factor). Briefly: cell_activity; neurite outgrowth, NGF 0.38 nM; SPR binding; TF-1 IC50 0.110 nM. The protocol: as §1, §2
Series [11] deals with T1, NGF (nerve growth factor). Briefly: cell_activity; neurite outgrowth, NGF 0.38 nM; SPR binding; TF-1 IC50 0.041 nM. The protocol:
as §1, §2

Series [12] addresses T1, NGF (nerve growth factor). Briefly: cell_activity; neurite outgrowth, NGF 0.38 nM; SPR binding; TF-1 IC50 0.175 nM. The protocol: as §1, §2
Series [13] has as its target T1, NGF (nerve growth factor). In words: cell_activity; neurite outgrowth, NGF 0.38 nM; SPR binding; TF-1 IC50 0.052 nM. The protocol: as §1, §2
For series [14], the target named is T1, NGF (nerve growth factor). Briefly: cell_activity; neurite outgrowth, NGF 0.38 nM; SPR binding; TF-1 IC50 0.083 nM. Here is the method:
as §1, §2

T1 sequence (P01138 122-241, one chain of several): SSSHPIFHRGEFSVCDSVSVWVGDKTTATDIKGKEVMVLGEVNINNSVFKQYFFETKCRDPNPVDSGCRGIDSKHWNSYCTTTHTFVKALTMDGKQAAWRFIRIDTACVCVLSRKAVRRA

B1: aptamer ID 26(3) (ssRNA)
RNA: GGGAGACUCGCCAGAGUUGAAAGAAACCCAAAUAAGUGUGCGCAC
modifications: 2'-F pyrimidines; 2'-OMe at 6,10,13-16; other purines 2'-OH
The term IC50 denotes the point on the concentration scale where inhibition reaches its midpoint. Read a high IC50 as weaker potency. As to B1, the IC50 in series [1] is < 1000 pM.

B2: aptamer ID 26(41) (mixed)
RNA: GGGAGACUCGCCAGAGUUGAAAGAAACCCAAAUAAGUGUGCGCAC
modifications: 2'-F pyrimidines except dC at 29 and dT at 37; 2'-OMe purines except 2'-OH at 3,19,20,26; 5' idT and 3' idT
In turn, B2 displayed an IC50 in series [2] of 104 pM.

B3: aptamer ID 26(38) (ssRNA)
RNA: GGGAGACUCGCCAGAGUUGAAAGAAACCCAAAUAAGUGUGCGCAC
modifications: 2'-F pyrimidines except 2'-OMe at 7; 2'-OMe purines except 2'-OH at 3,19,20,26; PS between 20 and 21; 5' idT and 3' idT
As for B3, in [3], the 50% inhibitory concentration (IC50) stood at 145 pM.

B4: aptamer ID 26(13) (ssRNA)
RNA: GGGAGACUCGCCAGAGUUGAAAGAAACCCAAAUAAGUGUGCGCAC
modifications: 2'-F pyrimidines; 2'-OMe purines except 2'-OH at 3,5,19,20,22,24,26; 5' idT and 3' idT
Turning to B4, in series [4], the IC50 turned out to be 39 pM.

B5: aptamer ID 26(42) (mixed)
RNA: GGGAGACUCGCCAGAGUUGAAAGAAACCCAAAUAAGUGUGCGCAC
modifications: 2'-F pyrimidines except dC at 9,29 and dT at 33,37; 2'-OMe purines except 2'-OH at 3,19,20,26; 5' idT and 3' idT
In series [5], B5 registered an IC50 of 83 pM.

B6: aptamer ID 26(11) (ssRNA)
RNA: GGGAGACUCGCCAGAGUUGAAAGAAACCCAAAUAAGUGUGCGCAC
modifications: 2'-F pyrimidines; 2'-OMe purines except 2'-OH at 3,5,19-22; 5' idT and 3' idT
In series [6], B6 yielded an IC50 of 87 pM.

B7: aptamer ID 26(8) (ssRNA)
RNA: GGGAGACUCGCCAGAGUUGAAAGAAACCCAAAUAAGUGUGCGCAC
modifications: 2'-F pyrimidines; 2'-OMe at 22; other purines 2'-OH
Consider B7, for which, in series [7], the IC50 was < 1000 pM.

B8: aptamer ID 26(15) (ssRNA)
RNA: GGGAGACUCGCCAGAGUUGAAAGAAACCCAAAUAAGUGUGCGCAC
modifications: 2'-F pyrimidines; 2'-OMe purines except 2'-OH at 3,5,19,20,24,26; 5' idT and 3' idT
With B8, the IC50 in series [8] is 67 pM.

B9: aptamer ID 26(44) (ssRNA)
RNA: GGGAGACUCGCCAGAGUUGAAAGAAACCCAAAUAAGUGUGCGCAC
modifications: 2'-F pyrimidines except 2'-OMe at 7,11,12,17,33,45; 2'-OMe purines except 2'-OH at 3,19,20,26; 5' idT and 3' idT
With B9, in series [9], the IC50 worked out at 74 pM.

B10: aptamer ID 26(20) (ssRNA)
RNA: GGGAGACUCGCCAGAGUUGAAAGAAACCCAAAUAAGUGUGCGCAC
modifications: 2'-F pyrimidines; 2'-OMe purines except 2'-OH at 3,19,20,24; 5' idT and 3' idT
For the molecule B10, the IC50 in series [10] amounted to 16 pM.

B11: aptamer ID 26(9) (ssRNA)
RNA: GGGAGACUCGCCAGAGUUGAAAGAAACCCAAAUAAGUGUGCGCAC
modifications: 2'-F pyrimidines; 2'-OMe purines except 2'-OH at 3,5,19-22,26; 5' idT and 3' idT
In [11], B11 came in with an IC50 of 52 pM.

B12: aptamer ID 26(21) (mixed)
RNA: GGGAGACUCGCCAGAGUUGAAAGAAACCCAAAUAAGUGUGCGCAC
modifications: 2'-F pyrimidines except dC at 7; 2'-OMe purines except 2'-OH at 3,19,20,26; 5' idT and 3' idT
Consider B12, for which, in series [12], the IC50 was 283 pM.

B13: aptamer ID 26(12) (ssRNA)
RNA: GGGAGACUCGCCAGAGUUGAAAGAAACCCAAAUAAGUGUGCGCAC
modifications: 2'-F pyrimidines; 2'-OMe purines except 2'-OH at 3,19-22,24,26; 5' idT and 3' idT
In [13], B13 displayed a 50% inhibitory concentration (IC50) of 36 pM.

B14: aptamer ID 26(50) (mixed)
RNA: GGGAGACUCGCCAGAGUUGAAAGAAACCCAAAUAAGUGUGCGCAC
modifications: 2'-F pyrimidines except 2'-OMe at 7,11,12,17,33,45, dT at 8,37 and dC at 9,29; 2'-OMe purines except 2'-OH at 3,19,20,26; 5' idT and 3' idT
In series [14], B14 had an IC50 of 46 pM.
